Article PMC11737852 (2025)

B1: Myc-USP5 [not stated] / Flag-IRF3 [not stated] (parent complex)
chain 1: MAELSEEALLSVLPTIRVPKAGDRVHKDECAFSFDTPESEGGLYICMNTFLGFGKQYVERHFNKTGQRVYLHLRRTRRPKEEDPATGTGDPPRKKPTRLAIGVEGGFDLSEEKFELDEDVKIVILPDYLEIARDGLGGLPDIVRDRVTSAVEALLSADSASRKQEVQAWDGEVRQVSKHAFSLKQLDNPARIPPCGWKCSKCDMRENLWLNLTDGSILCGRRYFDGSGGNNHAVEHYRETGYPLAVKLGTITPDGADVYSYDEDDMVLDPSLAEHLSHFGIDMLKMQKTDKTMTELEIDMNQRIGEWELIQESGVPLKPLFGPGYTGIRNLGNSCYLNSVVQVLFSIPDFQRKYVDKLEKIFQNAPTDPTQDFSTQVAKLGHGLLSGEYSKPVPESGDGERVPEQKEVQDGIAPRMFKALIGKGHPEFSTNRQQDAQEFFLHLINMVERNCRSSENPNEVFRFLVEEKIKCLATEKVKYTQRVDYIMQLPVPMDAALNKEELLEYEEKKRQAEEEKMALPELVRAQVPFSSCLEAYGAPEQVDDFWSTALQAKSVAVKTTRFASFPDYLVIQIKKFTFGLDWVPKKLDVSIEMPEELDISQLRGTGLQPGEEELPDIAPPLVTPDEPKGSLGFYGNEDEDSFCSPHFSSPTSPMLDESVIIQLVEMGFPMDACRKAVYYTGNSGAEAAMNWVMSHMDDPDFANPLILPGSSGPGSTSAAADPPPEDCVTTIVSMGFSRDQALKALRATNNSLERAVDWIFSHIDDLDAEAAMDISEGRSAADSISESVPVGPKVRDGPGKYQLFAFISHMGTSTMCGHYVCHIKKEGRWVIYNDQKVCASEKPPKDLGYIYFYQRVAS
chain 2: MGTPKPRILPWLVSQLDLGQLEGVAWVNKSRTRFRIPWKHGLRQDAQQEDFGIFQAWAEATGAYVPGRDKPDLPTWKRNFRSALNRKEGLRLAEDRSKDPHDPHKIYEFVNSGVGDFSQPDTSPDTNGGGSTSDTQEDILDELLGNMVLAPLPDPGPPSLAVAPEPCPQPLRSPSLDNPTPFPNLGPSENPLKRLLVPGEEWEFEVTAFYRGRQVFQQTISCPEGLRLVGSEVGDRTLPGWPVTLPDPGMSLTDRGVMSYVRHVLSCLGGGLALWRAGQWLWAQRLGHCHTYWAVSEELLPNSGHGPDGEVPKDKEGGVFDLGPFIVDLITFTEGSGRSPRYALWFCVGESWPQDQPWTKRLVMVKVVPTCLRALVEMARVGGASSLENTVDLHISNSHPLSLTSDQYKAYLQDLVEGMDFQGPGES

Variants of: B1
Assay: in situ PLA; HEK293T cells co-transfected for 24 h, then infected with SeV (0.1 MOI) for 6 h; parent: 12; read off a plot
For chain 1 C335A, the response was about 12 complex number/cell.
